# Measured values: patent publication US20210347913A1 (CRISPR THERAPEUTICS, published 2021)
# Residue numbers refer to the chain shown, from its start. Names and notes keep the numbering of the source.
# B1: CTX181 (unmasked CAR) (other)
# chain: QVQLVESGGGVVQPGRSLRLSCAASGFTFSSYGMHWVRQAPGKGLEWVAVIWDDGSNKYYVDSVKGRFTISRDNSKNTLYLQMNSLRAEDTAVYYCARDDYYGSGSFNSYYGTDVWGQGTTVTVSSGGGGSGGGGSGGGGSEIVLTQSPATLSLSPGERATLSCRASQSVSIYLAWYQQKPGQAPRLLIYDASNRATGIPARFSGSGSGTDFTLTISSLEPEDFAVYYCQQRSNWPPFTFGPGTKVDIKSAAAFVPVFLPAKPTTTPAPRPPTPAPTIASQPLSLRPEACRPAAGGAVHTRGLDFACDIYIWAPLAGTCGVLLLSLVITLYCNHRNRKRGRKKLLYIFKQPFMRPVQTTQEEDGCSCRFPEEEEGGCELRVKFSRSADAPAYQQGQNQLYNELNLGRREEYDVLDKRRGRDPEMGGKPRRKNPQEGLYNELQKDKMAEAYSEIGMKGERRRGKGHDGLYQGLSTATKDTYDALHMQALPPR
# notes: Chimeric antigen receptor (Ab181 scFv) on the surface of TRAC-/B2M- human T cells; entry without signal peptide; also called anti-PTK7 CAR; unmasked CAR CTX181
# B2: CTX181.M5 (other)
# chain: QGCTYPSWVAYIRFCGSSGGSGGSGGSGGGPLGLAGGSSGQVQLVESGGGVVQPGRSLRLSCAASGFTFSSYGMHWVRQAPGKGLEWVAVIWDDGSNKYYVDSVKGRFTISRDNSKNTLYLQMNSLRAEDTAVYYCARDDYYGSGSFNSYYGTDVWGQGTTVTVSSGGGGSGGGGSGGGGSEIVLTQSPATLSLSPGERATLSCRASQSVSIYLAWYQQKPGQAPRLLIYDASNRATGIPARFSGSGSGTDFTLTISSLEPEDFAVYYCQQRSNWPPFTFGPGTKVDIKSAAAFVPVFLPAKPTTTPAPRPPTPAPTIASQPLSLRPEACRPAAGGAVHTRGLDFACDIYIWAPLAGTCGVLLLSLVITLYCNHRNRSKRSRLLHSDYMNMTPRRPGPTRKHYQPYAPPRDFAAYRSRVKFSRSADAPAYQQGQNQLYNELNLGRREEYDVLDKRRGRDPEMGGKPRRKNPQEGLYNELQKDKMAEAYSEIGMKGERRRGKGHDGLYQGLSTATKDTYDALHMQALPPR
# notes: Masked chimeric antigen receptor on the surface of TRAC-/B2M- human T cells; entry without signal peptide
# B3: CTX181.M4 (other)
# chain: B2 chain with Y5F, S7N, W8T, V9T, A10M, Y11Q, I12R, R13T
# notes: as for B2
# B4: CTX181.M3 (other)
# chain: B2 chain with Y5M, S7P, W8S, V9P, A10R, Y11S, I12K, R13V, F14I
# B5: CTX181.M12 (other)
# chain: B2 chain with Y5M, S7V, W8H, V9T, A10Y, Y11S, I12Q, R13W, F14L
# B6: CTX181.M9 (other)
# chain: QGCHIGKRPVPCLWIGSSGGSGGSGGSGGGPLGLAGGSSGQVQLVESGGGVVQPGRSLRLSCAASGFTFSSYGMHWVRQAPGKGLEWVAVIWDDGSNKYYVDSVKGRFTISRDNSKNTLYLQMNSLRAEDTAVYYCARDDYYGSGSFNSYYGTDVWGQGTTVTVSSGGGGSGGGGSGGGGSEIVLTQSPATLSLSPGERATLSCRASQSVSIYLAWYQQKPGQAPRLLIYDASNRATGIPARFSGSGSGTDFTLTISSLEPEDFAVYYCQQRSNWPPFTFGPGTKVDIKSAAAFVPVFLPAKPTTTPAPRPPTPAPTIASQPLSLRPEACRPAAGGAVHTRGLDFACDIYIWAPLAGTCGVLLLSLVITLYCNHRNRSKRSRLLHSDYMNMTPRRPGPTRKHYQPYAPPRDFAAYRSRVKFSRSADAPAYQQGQNQLYNELNLGRREEYDVLDKRRGRDPEMGGKPRRKNPQEGLYNELQKDKMAEAYSEIGMKGERRRGKGHDGLYQGLSTATKDTYDALHMQALPPR
# notes: as for B2
# B7: mask peptide M10 (peptide)
# peptide: CYIGLRMVPCFHM
# notes: Found by phage display (Screen 2); in the masked constructs preceded by QG and fused through a cleavable linker
# B8: mask peptide M11 (peptide)
# peptide: CTMPSHAVASFLC
# notes: as for B7
# B9: mask peptide M12 (peptide)
# peptide: CTMPVHTYSQWLC
# notes: as for B7
# B10: mask peptide M13 (peptide)
# peptide: CTYPPRFHMHWLC
# notes: as for B7
# B11: mask peptide M14 (peptide)
# peptide: CTHVAQWAIKAFC
# notes: as for B7
# B12: mask peptide M3 (peptide)
# peptide: CTMPPSPRSKVIC
# notes: as for B7
# B13: mask peptide M4 (peptide)
# peptide: CTFPNTTMQRTFC
# notes: as for B7
# B14: mask peptide M5 (peptide)
# peptide: CTYPSWVAYIRFC
# notes: as for B7
# B15: mask peptide M6 (peptide)
# peptide: VCTYPPAHRTRFC
# notes: as for B7
# B16: mask peptide M7 (peptide)
# peptide: CTMPYHIHSIGLC
# notes: as for B7
# B17: mask peptide M8 (peptide)
# peptide: WCTIPSSMSIRLC
# notes: as for B7
# B18: mask peptide M9 (peptide)
# peptide: CHIGKRPVPCLWI
# notes: as for B7
# Biological target: T1, PTK7 on PTK7 positive cell line SaOS-2 (osteosarcoma) (UniProt Q13308 31-1070, limits assumed)
# T1 sequence (looked up): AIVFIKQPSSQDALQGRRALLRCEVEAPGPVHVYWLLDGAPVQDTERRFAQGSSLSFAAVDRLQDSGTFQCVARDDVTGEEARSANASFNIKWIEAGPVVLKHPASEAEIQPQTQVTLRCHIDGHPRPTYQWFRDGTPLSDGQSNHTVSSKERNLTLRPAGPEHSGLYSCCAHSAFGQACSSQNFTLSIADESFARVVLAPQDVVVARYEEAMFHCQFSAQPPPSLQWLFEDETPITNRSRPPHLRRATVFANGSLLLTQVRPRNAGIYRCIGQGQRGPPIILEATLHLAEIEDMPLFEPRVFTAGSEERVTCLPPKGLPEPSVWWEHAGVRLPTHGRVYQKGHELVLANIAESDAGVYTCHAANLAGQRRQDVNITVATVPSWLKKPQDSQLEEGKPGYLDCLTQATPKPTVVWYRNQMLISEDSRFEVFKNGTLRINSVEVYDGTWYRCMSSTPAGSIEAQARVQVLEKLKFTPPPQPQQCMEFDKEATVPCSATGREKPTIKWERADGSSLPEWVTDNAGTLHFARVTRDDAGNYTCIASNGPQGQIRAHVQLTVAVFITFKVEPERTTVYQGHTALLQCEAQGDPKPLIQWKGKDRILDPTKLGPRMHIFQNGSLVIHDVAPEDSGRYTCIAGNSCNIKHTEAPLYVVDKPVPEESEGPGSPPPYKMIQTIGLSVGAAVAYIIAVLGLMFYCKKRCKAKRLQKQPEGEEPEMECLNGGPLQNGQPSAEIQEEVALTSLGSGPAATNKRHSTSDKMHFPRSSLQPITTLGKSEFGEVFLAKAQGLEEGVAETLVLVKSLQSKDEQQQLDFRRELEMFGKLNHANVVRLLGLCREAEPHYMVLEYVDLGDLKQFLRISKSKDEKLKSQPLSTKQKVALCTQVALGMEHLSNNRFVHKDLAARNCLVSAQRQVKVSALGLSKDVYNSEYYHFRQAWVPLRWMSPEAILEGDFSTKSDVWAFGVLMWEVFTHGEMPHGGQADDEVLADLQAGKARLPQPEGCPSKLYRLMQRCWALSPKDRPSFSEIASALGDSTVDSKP
# Assay: cell-based or functional assay
Binder,IFNγ (pg/mL) at E:T = 1:0.5 [pg/mL],IFNγ (pg/mL) at E:T = 1:1 [pg/mL]
B1,22300,34900
B2,523,459
B3,9550,13200
B4,833,799
B5,2420,1770

# Biological target: T2, recombinant human PTK7.Fc (R and D Systems, catalog #9799-TK) (human, UniProt Q13308 31-704, limits assumed)
# T2 construct: Bought reagent; also called soluble recombinant human PTK7.Fc; soluble antigen PTK7; not shown: Fc part of the bought fusion (detected with anti-human Fc)
# T2 sequence (looked up): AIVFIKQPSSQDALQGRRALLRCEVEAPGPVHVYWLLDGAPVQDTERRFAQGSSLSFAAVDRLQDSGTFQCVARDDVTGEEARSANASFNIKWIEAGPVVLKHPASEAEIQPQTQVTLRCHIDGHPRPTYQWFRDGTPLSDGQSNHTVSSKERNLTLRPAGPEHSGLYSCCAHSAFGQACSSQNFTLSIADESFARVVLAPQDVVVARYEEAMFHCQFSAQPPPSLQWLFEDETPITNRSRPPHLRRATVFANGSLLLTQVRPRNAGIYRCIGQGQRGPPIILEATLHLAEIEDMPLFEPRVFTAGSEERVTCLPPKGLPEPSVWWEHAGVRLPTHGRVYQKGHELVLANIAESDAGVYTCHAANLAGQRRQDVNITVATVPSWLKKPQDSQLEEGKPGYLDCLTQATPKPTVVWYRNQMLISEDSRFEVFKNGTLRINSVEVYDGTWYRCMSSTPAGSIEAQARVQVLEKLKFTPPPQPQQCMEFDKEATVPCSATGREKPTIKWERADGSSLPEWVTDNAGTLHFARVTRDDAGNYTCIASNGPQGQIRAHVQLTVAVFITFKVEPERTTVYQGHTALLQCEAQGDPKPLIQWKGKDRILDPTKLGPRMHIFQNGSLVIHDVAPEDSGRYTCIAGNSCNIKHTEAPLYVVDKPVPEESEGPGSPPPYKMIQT
# Assay: flow cytometry, percent of CAR T cells positive for 10 ug/mL PTK7.Fc
# Protocol: In addition to detecting surface CAR expression, the ability of the CAR T cells and masked CAR T cells to detect target antigen was also determined. Live CAR T cells were gated by their forward scatter (FSC) and side scatter (SSC) profiles, and with DAPI dye (Invitrogen, catalog #: D3571). The cells were then stained with 10 μg/mL recombinant human PTK7.Fc (R and D Systems, catalog #9799-TK Lot DHMCO219041) as described above in Example 3, and with mouse anti-human.Fc conjugated to APC (Biolegend cat #409305) as secondary antibody for detection (FIG. 3).
row,Binder,% Antigen detection [%]
1,B1,61.9
2,B2,18.5
3,B3,32.6
4,B6,35.1

# Biological target: T3, anti-PTK7 antibody Ab181
# T3 construct: Unmasked parent IgG1kappa; also called Ab181 IgG1kappa
# Assay: phage display selection of peptide binders of Ab181 (Screen 2, XnCXnCXn library)
row,Binder,binding result
1,B7,binds
2,B8,binds
3,B9,binds
4,B10,binds
5,B11,binds
6,B12,binds
7,B13,binds
8,B14,binds
9,B15,binds
10,B16,binds
11,B17,binds
12,B18,binds

# Biological target: T1, PTK7 on PTK7 positive cell line SaOS-2 …
# Assay: cell-based or functional assay
# Remark: another data set of the same source
Binder,% Cell killing at E:T = 1:0.5 [%],% Cell killing at E:T = 1:1 [%]
B1,97.1,96.6
B2,29.6,-0.8
B3,78.4,54.6
B4,39,17.8
B5,29.5,18.5
